In FireProtDB (doi:10.1110/ps.03220403):

B1: wild type, O00095 (protein)
chain: MKFLQVLPALIPAALAQTSCDQWATFTGNGYTVSNNLWGASAGSGFGCVTAVSLSGGASWHADWQWSGGQNNVKSYQNSQIAIPQKRTVNSISSMPTTASWSYSGSNIRANVAYDLFTAANPNHVTYSGDYELMIWLGKYGDIGPIGSSQGTVNVGGQSWTLYYGYNGAMQVYSFVAQTNTTNYSGDVKNFFNYLRDNKGYNAAGQYVLSYQFGTEPFTGSGTLNVASWTASIN
B2: wild type, Q8NJY3 (protein)
chain: MLKSALLLGAAAVSVQSASIPTIPANLEPRQIRSLCELYGYWSGNGYELLNNLWGKDTATSGWQCTYLDGTNNGGIQWSTAWEWQGAPDNVKSYPYVGKQIQRGRKISDINSMRTSVSWTYDRTDIRANVAYDVFTARDPDHPNWGGDYELMIWLARYGGIYPIGTFHSQVNLAGRTWDLWTGYNGNMRVYSFLPPSGDIRDFSCDIKDFFNYLERNHGYPAREQNLIVYQVGTECFTGGPARFTCRDFRADLW

Settings: pH 8, Thermal, CD, Bis-Tris propane ammonium acetate 0.05 M 0.05 M, reversible: No, whole UniProt chain shown

Protein	Tm (Hypocrea jecorina)	Tm (Trichocladium griseum)
B1	54.4 °C	–
B2	–	68.7 °C
